# Reference: the supplement of paper PMC12764529
# ± gives the half width of the 95% confidence interval.
# Assay: folding stability dG unfold from trypsin proteolysis; higher = more stable
# In short: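 How resistant each design was to proteolysis was captured as K50, inferred by Bayesian fitting of sequencing counts. Unfolding free energy was then derived relative to a sequence-predicted unfolded-state K50 and a shared folded-state K50, per protease or combined. Digestion used trypsin and chymotrypsin at 11 threefold-diluted concentrations plus a no-protease condition, on mini-proteins under 80 residues without cysteine in a PA-tagged cDNA display construct. Designs were kept only when AlphaFold2 dimer inter-PAE was above 15.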
row,Sequence,folding stability dG unfold
1,SAGGSAGGSAGGSEKEVEISVVLPDGYVLRVRVREVSEDGEEVEVEVELVKVKPGQKLLSAGGSAGGSAGGS [r4_72_TrROS_Hall],6.57 ± 0.213 kJ/mol
2,SAGGNDDDQKPKMVRVKIKYDNPDGEKYKIDEIWVMPPPFIMIRMPGNGQEIFIPPDQIKEIEIEPVSAGGS [r8_410_TrROS],-0.624 ± 1.17 kJ/mol
3,SAGGSAGGSAGGSEELLKKNPNYIIVKKVEKVLEAKTPSGKKYTIKTTIYIITKPNELPSAGGSAGGSAGGS [r10_0_JUSTAS],6.37 ± 0.414 kJ/mol
4,SAGGSMVLVRVERTPDGTLRVTALFFFDGRLLRVERTFRLAPDGRIVDADVSVEELPVPPSEVPVLSAGGSA [r2_474_TrMRF],14.2 ± 0.669 kJ/mol
5,SAGGSAGGSAGGMYVLIKITNPKTKKEISILIKVKPGDKITFTLPNGAKVEIIELPPEESAGGSAGGSAGGS [r10_957_TrROS_Hall],13.8 ± 0.544 kJ/mol
6,SAGGMKIIPLEEAEKFIEANPDKELVIGVRPGESLYLFVVKRDPDKPFNIEVLEVIEFDPDGNGRHLPSAGG [r13_481_TrMRF],4.77 ± 0.46 kJ/mol
7,SAGGMPGEVVDISDVPPGATLYDPEGKSYGPVVDVRVTVGPDSVEITITFPDGTTRTITAPRDKIYILPSAG [r5_850_JUSTAS],7.67 ± 0.347 kJ/mol
8,SAGGSAGGSTILDALEKGFEITDIEPNNDGPYMLTVRNPEEGYRVTIMIHPNGDIMIQVQPVPSAGGSAGGS [r12_166_TrROS],7.67 ± 0.314 kJ/mol
9,SAGSKKYIPKEVTVYVLGTAPPDMSLEEALKNPNFAVSVPLKATVIYDPETKTARVLLPDGTVVEFPVPSAG [r5_701_TrMRF],6.3 ± 0.205 kJ/mol
10,SAGKVEIIPIENEDGSKFLVIKVNGKLIIITENEDGSISIKIIDLKTNKIEVIEIPKKDLKKALEKILKSAG [r5_674_TrROS_Hall],16 ± 0.753 kJ/mol
11,SAGGMLKIKVELFYPDGSTRTLPVPEEIQKEIVEALKKGEKIPEKPKKELEDIAKKEGYTIKIIELLSAGGS [r8_159_JUSTAS],3.14 ± 0.213 kJ/mol
12,SAGGSAGGSAGMPLKVTVLSTSPLLESSELVTVKITPPDGSVVVIPSSVSLEEVEKLLLSSAGGSAGGSAGG [r17_353_JUSTAS],3.28 ± 0.1 kJ/mol
13,SAGGMKKIKIVVKVPPNVTAEELAKALEDELKKKGYEVKVTVKVVKKPDGSLYVVIEVEIRPKNEKPSAGGS [r16_128_TrROS_Hall],12.7 ± 0.544 kJ/mol
14,SAGGSAGGMIPLEEIEIEEITEETLPSNEKVITVKVKFPDGTKTLTFEPNEGEEKILEKIKELTSAGGSAGG [r6_233_JUSTAS],2.28 ± 0.176 kJ/mol
15,SAGGMNLMIKIENNGEPITFMINSPEDAEEIASNLPELGYPIEVKKLEPQRNEDGNPMVMVEIRIKPSAGGS [r8_336_TrROS],3.19 ± 0.586 kJ/mol
16,SAGGKWRTIQLPGISIQLNPKDGTITVMMPSDMMEELKEAFGPGFEIDEIHHHPDGWMQMTIPIKPPSAGGS [r8_415_TrROS],4.95 ± 0.146 kJ/mol

row,Sequence,folding stability dG unfold
1,SAGMEFPANTTVELTLTLTFPVPLPGEGTGPVTLTYTLRLEVRPKPRIPLPDPALRELLERLGLSPDLLSAG [r5_624_TrMRF],16.2 ± 1.63 kJ/mol
2,SMTVKIELEVEIEVPETPEELRKLAEALAEELGIEEVKVVEIEYDPETKTVRVKVEITVKLPPPPPEEEESA [r9_918_TrROS_Hall],13 ± 0.586 kJ/mol
3,SAGGSAGGSAGFEAFVEEIKKDGDYKVEAFVFDNESGIKTLVIVLESPEEDKYEIRTFNISAGGSAGGSAGG [r11_753_TrMRF],3.22 ± 0.159 kJ/mol
4,SAGGSANLAETPPVTTTETIEIKVPDPGKPLPITEEDVKKKYEGKNTKVEISVEGDKVIITITTKESAGGSA [r15_377_JUSTAS],1.7 ± 0.226 kJ/mol
5,SAGGSAGGSAGPNMVPIGKLTIEIRNPDNGNPLRIRIDLYVVPAPDGWMIALRILDIEPPSAGGSAGGSAGG [r11_113_TrROS],10.3 ± 0.544 kJ/mol
6,SAGGSAGGSAGPIKITSVEYDPNSGTIIARFPDGVVIRIKMNPDGNFKIDEIYPIKPGDLSAGGSAGGSAGG [r17_61_TrROS],9.93 ± 0.368 kJ/mol
7,SAGGSAGGSAMTITITGLSPEQIEEAAKALGATVTFDKETKTVTITVSPEQLEKLKELLEKSAGGSAGGSAG [r3_354_TrROS_Hall],14.7 ± 0.586 kJ/mol
8,SAGGSAGGSMEIIPPEELLARLSPEELVLVRLPTAPRLLPREELRLLPRDIPVEVEVIPRLPPSAGGSAGGS [r12_501_TrMRF],2.07 ± 0.962 kJ/mol
9,SGSPSDDIVTTPLPGPSERATFPDGSSISRSPAGVTTTTSPTSITTTTTTPSATVTSTTTSLPPPSPSAPSA [r9_901_JUSTAS],-2.91 ± 0.142 kJ/mol
10,SMVKIYAAPNVPPEQREAIERLVKRILENPDIPIDPETIGKLIKEEAGNPELTIDRIEILPLVPPGVAEKSA [r9_620_TrMRF],3.3 ± 0.268 kJ/mol
11,SAGMPKPIRLLVRNPETGKYFLVEVEEPEELVTVTLLDPETGEVRAVFEGPLEEIIAALEAEGFEVEPVSAG [r5_291_TrMRF],18.7 ± 0.669 kJ/mol
12,SAGGSAGGSAGTATLTDPNGVRIEVFPDGTVRATVYRPDPSTGEWKLAATFTFPLHPDAFSAGGSAGGSAGG [r11_497_TrMRF],7.2 ± 0.113 kJ/mol
13,SGITPEQIEELAREIADLFPDVEIEIYPGLEPSIFDGPGAVAVIEREEGRGYITIYFPETGEPLVIEVPDSA [r9_1062_TrMRF],6.28 ± 0.331 kJ/mol
14,SAGGSAGGSAMTFTVNSEEEVEKLKKLGGVTKTSEEPGKVTLSAPNLPPELQEKIKEVIQKSAGGSAGGSAG [r3_398_JUSTAS],-2.29 ± 0.837 kJ/mol
15,SMTKTIPVTIEVDPSLSEEEIEALVEKVKEEIKEKAEAEGGKVKVTVTIEPDPNKPVVHGTITITKPKKLSA [r9_1161_JUSTAS],2.92 ± 0.205 kJ/mol
